US10975360B2, “Process for the modification of alkanes, fatty acids and fatty alcohols” (priority 2016, dated 2021)

B1: CYP505E1: CYP505 cytochrome P450 monooxygenase from Aspergillus niger, SEQ ID No 3 (protein, listed as Aspergillus kawachii)
chain: MKDAERIPGPKPLPVVGNLFDIDPEHSLESIVAFAEKFGPLFQITINGEKQIFATSQALVDELCDELRFHKAVVTGLEILRLLAHDGLFTAYHGERGWGIAHRILVPAFGPLRIRNMLDDMSDVAQQLCLKWARQGGSTSINITEDFTRLTLDTIALCTMGFRLNSFYNNETMHPFVQSMLYVLREADIQANLPGIANSIRVSAQRRMHKNIEAMRTMARGIIQERRKNKNPVDDILNTLLNGRDPVTGEGMSDDSIIDNVITFLIAGHETTSGLLSFTFYFLIQHPHILKKAQEEVDETVGLAQISAQHLAELPYIDAILKESLRLMPTAPGFTVTPKKTEVLGGRWMINAGQPVNVLLPACLRDQSVFGPDADEFRPERMLAENFSKLPPNSWKPFGNGERGCIGRAFAWQEAQLVVAMILQTFDLVPDDPSYQLRIKETLTIKPDGFRIRATLRRGQTATGLSRRSMLVARDGSSEESSNHPAEARGDHAPARGQPVSFFYGSNSGTCKALAHQLASNMMSRGYTTQKLAPLDNAVDNLPRDQPVIILTTTYDGQPTDNAKKFVAWLETGNVLSLQGISYAVFGCGHHDWTQTFYRIPILIDDLMYKAGATRLAPRGAANAAVSDLFSDLEAWEETSLLPALRENFLPSNSTDFDPLNPHQIQLSLSKPRRVDLHKGLIEAKVTAVRVLTSPDTPEKRHLEFCFQGDLSLRPGDHLNILPVNPPSTVSRVLAQFNLAPDYNITVNSFNTLGLPQATPVSASELFSSYVELCQPATRNNLKSLIAATQSDTVKQELNRLYDSYEFIVRDKRVSVLDLLEQFPSISLPIAAFISMLPALRVRTYSLSMAPAFKPSHSSLTFSVINEPAWRGSGQHLGVASNYLASLTSGSIFYFSPRPAKETFHLPKDPSRTPIIMICAGSGLAPFLSFIQDRMVLKQQNKPLAKAFLFFGCRGRSLDDLYHEELSEYEAAGVVEVRRAYSKTPEFDIAKGCRYVQHRLVTEGQAILSLWAQNAIIYVCGSTSMAKGAEAVLQNMLGPLPKERYVTEIF
B2: CYP505Ak: CYP505 cytochrome P450 monooxygenase from Aspergillus kawachii, SEQ ID No 2 (protein)
chain: MRDAERIPGPTPLPVVGNLFDIDLEHVLQSVIGLANKYGPLFQITINGEKQIFATSQALVDELCDESRFHKAVASGLENLRMLAHDGLFTAYHGERGWGIAHRILVPAFGPLRIQSMFDDMGDLAQQLCLKWARQGASNSINITDDFTRLTLDTIALCTMDFRLNSFYNNDTMHPFVESMLYVLREADVQSALPGIANSVRIMAHRRMLKNIEAMRTIARDIIHDRRKKENPADDLLNTLLNGRDPVTGEGMSDESIIDNVITFLVAGHETTSGLLSFTFYYLVQHPDILKKAQKEVDETVGQAQISVQHLAELPYIDAILKESLRMMPTAPGFTVTPKKAETLGGKWLLNAGQPINVLLPACLRDRSIFGPNADEFSPGRMLAENFSKLPPNSWKPFGNGERSCIGRAFAWQEAQLVVAMILQNFDLVPDDPSYTLRIKETLTIKPDGFRVRATLRHRQTATGLFQHTLSARNDTSLASSSAHFIKKSEDQAPAGGRPICFFYGSNSGTCKALAHRLASDLMPYGFTDQKLAVLDTAVDNLPRDQPVIILTTTYDGQPTDDAKKFVAWLESGKVPALQGISYAVFGCGHHDWTQTFYRIPTLIDELMHKAGATRLAPRGTANAAVSDLFSDLEAWEETSLLPALRETFLLSSSSDLEPLNLHQLQISLSKPRRIDLHKDLMEARVTTVRILTNPDTPEKRHIEFRFQGDTTLRPGDHVNVLPVNPPSTVLRVLAQFNLAPDYSITINSFNTLGLPQATPVSASELFSAYVELSQPATRNNLRILAATAQSDEDKQELIHLQDSYDSLVRDKRVSVLDLLEQFPSVSLPIAAFISMLPALRLRTYSLSLAPSFKPSHGSLTFSVVNEPARNGNRRYLGVGSNYLASLTPGSILYLSPRPAKEAFHLPVDQSRIPIIMICAGSGLAPFLSFIQDRMIWQQQDKPLARALLFFGCGGRFLDDLYHEELSEFEAAGVVDVRRAYSKVLDYDMARGCKYVQDRLVAEANAIRHLWAQDATIYVCGSADMAKGVEGVLEKLLGMLPRERYVTEIYQMQTRDNVSEWLI
modifications: Aspergillus niger
B3: CYP505Pe: CYP505 cytochrome P450 monooxygenase from Penicillium expansum, SEQ ID No 4 (protein, listed as Penicillium expansum)
chain: MKDMESIPGPKPLPVVGNLFDIDLENGLQSIIKMAHEFGPLFQITINGQKQIFATSQALVDELCDETRFHKAVMGGIQKLRMLAKDGLFTAYHGERGWGIAHRILMPAFGPLRIRDMFEDMSDVAQQLCFKWARQGSSTSINICDDFTRLTLDTIALCTMGFRLNSYYNSNALHPFIESMLYVLKEAELQSTLPGVANCMRVKAQRRMSKHIDAMRSMARNLIEERRAKPEPVDDLLNTLLNGRDPITGEGMSDDLIISNIITFLIAGHETTSGLLSFTFYYLLQNQDVLERARNEVDEVTGVGPITVQHLAKLPYIDAIMKESLRLMPTAPAFTVTPQKPEVLGGKWMINTGDSVNLLLPVCLRDETVFGPDAGEFRPNRMLEENFSKLPPNSWKPFGNGERGCIGRAFAWQEAQLVVALVLRTFDLAAEDPYYKLRIKETLTIKPDGFRIRATLRHGKSATALSQNNISVGAAASPASSTYLAGNENGRDAAGGQPVSFFYGSNSGTCKALTHRLASTMMTRGFTDQNIAPLDSAVDNLPRDQPTIIITTTYDGQPTDDAKKFVAWLESGNSPSLQGVSYAVFGCGHQDWTKTFYRIPILIDALMYKAGATRLATRGAANAAISDLFSDLEVWEETNLLPGLRESFNPPNNSNFVPLEPHQLQISINKPTRVGMHRDLIEAKVTAIRTLTSPGAPEKRHLEFCIPGETTLRPGDHLNILPVNPPSTVSRALARFNLAPDHSITFESSNALDLPQATPVSAAELFSSYLELSQPATRNNLKELASTTPSDGEKQELLHLYDSYDSLIRAKRASVLDLLEQFTSVTLPITTFISMLPALRVRTYSLSMAPSFKPLHYSLTFSVINEPAWNGNGRYLGVASNYLASLNLGSILYISPRPAKDAFHLPTDQSSKPIIMICAGSGLAPFRSFIQDRMLWQQQDKTLAKALLFFGCRSPQLDDLYHDELSQFEAAGVVEVRRAYSKVPNHYLAKGCRYVQHRLLTETETIQDMWAQDAIIYVCGSGNLAKGVKAVLESMLGTLSERYITEIF

Assays:
[1] = assay type: cell-based, P. pastoris
Experimental: (§1) Precultures of P. pastoris transformants were prepared in buffered complex glycerol media (BMGY). BMGY contained: 10 g/l yeast extract, 20 g/l peptone, 3.4 g/l yeast nitrogen base, 10 g/l ammonium sulfate, 100 mM potassium phosphate (pH 6), 0.4 mg/l biotin and 1% (v/v) glycerol. Erlenmeyer flasks (500 ml) containing 50 ml BMGY media were inoculated with single colonies of 24 h old YPD-agar cultures of P. pastoris KM71 mut^s3/CYP505E3 and incubated at 30° C. and 225 rpm for 24 h. The cultures were harvested using pre-weighed centrifuge tubes at 3000 g for 5 min and stored on ice until further use.
(§2) The main cultures for expression were prepared in buffered complex methanol media (BMMY) containing 10 g/l yeast extract, 20 g/l peptone, 3.4 g/l yeast nitrogen base, 10 g/l ammonium sulfate, 100 mM potassium phosphate (pH 6), 0.4 mg/l biotin and 0.5 or 1% (v/v) methanol. Harvested cells from precultures were resuspended in BMMY media to final concentration of 1 g WC per 40 ml (appx. 25 g/l). The resuspended cultures (100 ml) were transferred to 500 ml Erlenmeyer flasks and incubated at 25° C. and 225 rpm for 24 h. The cultures were then harvested at 3000 g for 5 min using pre-weighed centrifuge tubes.
(§3) Different transformants of Pichia pastoris KM71 harbouring the CYP505 genes for SEQ ID Nos 1 to 7 and 9 to 12 were grown and harvested as described above. The harvested cells were resuspended to give 1 g wet cell weight in 40 ml MOPS buffer (200 mM, 100 mM glucose, 100 mM glycerol, pH 8) and 1 ml aliquots of these cell suspensions were transferred to 40 ml amber vials. Dodecane, 1-dodecanol and 1-tetradecanol were added neat to these cell suspensions to give final concentrations of 200 mM in the case of the alcohols and 1 M in the case of dodecane while in the case of dodecanoic acid 20 μl of a 500 mM stock solution (in DMSO) was added to give a final concentration of 10 mM. Transformants harbouring the CYP505 genes for SEQ ID Nos 1 to 4 were tested for the biotransformation of 1-dodecanol, 1-tetradecanol, dodecanoic acid, tetradecanoic acid and dodecane, while those harbouring the CYP505 genes for SEQ ID Nos 5 to 7 and 9 to 12 were only tested for the biotransformation of 1-dodecanol and dodecanoic acid. The biotransformations were incubated at 25° C. and 225 rpm for 24 h. Extractions were performed using ethyl acetate (500 μl×2). The extracts were analyzed using GC/MS.

[2] = Whole cell biotransformation of dodecane by CYP505s expressed in P. pastoris; assay type: cell-based; settings: whole cells of P. pastoris; for products produced from dodecane (GC-MS): 1 M dodecane, 24 h; for ω-7 hydroxylase activity C12alk: C12 alkane, GC-MS peak height
Experimental: as §1, §2, §3

Row | Molecule | products produced from tetradecanoic acid (GC-MS) [1] | ω-7 hydroxylase activity C14o [1] | products produced from dodecane (GC-MS) [2] | ω-7 hydroxylase activity C12alk [2]
1 | B1 | only 7-hydroxy tetradecanoic acid | − | 5-dodecanol | + (+ − 0.01 million < RA < 0.1 million)
2 | B2 | only 7-hydroxy tetradecanoic acid |  | 5-dodecanol | ++ (++ 0.1 million < RA < 1 million)
3 | B3 | only 7-hydroxy tetradecanoic acid | − | 5-dodecanol | ++ (++ 0.1 million < RA < 1 million)
